Values quoted from earlier work, collected in PMC3415683.

Molecular target: Dll-1 DSL-EGF3 (Homo sapiens) (UniProt O00548)
Assay: SPR

UniProt O00548, sequence (O00548 177-325): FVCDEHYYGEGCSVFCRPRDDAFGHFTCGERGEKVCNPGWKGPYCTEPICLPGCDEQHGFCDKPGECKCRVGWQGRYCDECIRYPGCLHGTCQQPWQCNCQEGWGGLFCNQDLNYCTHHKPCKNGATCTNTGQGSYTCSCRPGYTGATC

Notch1 EGF11-14 (from UniProt P46531)
Kd: 130 µM
